Source: KR20230128271A (dated 2023)

B1: 225Ac-HER3-ARC (Ac225-labelled, DOTA-conjugated anti-HER3 monoclonal antibody, heavy chain SEQ ID NO: 77 and light chain SEQ ID NO: 78) (antibody, V domains shown)
VH: QVQLVESGGGLVKPGGSLRLSCAASGFTFSDYAMSWIRQAPGKGLEWVSTISDGGTYTYYPDSVKGRFTISRDNAKNSLYLQMNSLRAEDTAVYYCAREWGDYDGFDYWGQGTLVTVSS
VL: DIQMTQSPSSLSASVGDRVTITCRASQEISGYLSWYQQKPGKAPKRLIYAASTLDSGVPSRFSGSGSGTEFTLTISSLQPEDFATYYCLQYDSYPYTFGQGTKLEIKR
modifications: DOTA chelator conjugated with p-SCN-Bn-DOTA and chelating actinium-225; sites and chain not stated
notes: also called Ac225 표지된 DOTA-접합된 항-HER3 모노클로날 항체
B2: anti-HER3 IgG monoclonal antibody consisting of heavy chain SEQ ID NO: 77 and light chain SEQ ID NO: 78 (unmodified) (antibody, V domains shown)
VH: B1 VH
VL: B1 VL
notes: It was detected with goat anti-human IgG F(ab')2-HRP; also called 항-HER3; 비변형된 항-HER3 mAb

Molecular target: T1, human recombinant HER3 (coated on ELISA plate) (human, UniProt P21860 20-643)
T1 construct: also called 인간 재조합 HER3
T1 sequence (P21860 20-643 limits assumed): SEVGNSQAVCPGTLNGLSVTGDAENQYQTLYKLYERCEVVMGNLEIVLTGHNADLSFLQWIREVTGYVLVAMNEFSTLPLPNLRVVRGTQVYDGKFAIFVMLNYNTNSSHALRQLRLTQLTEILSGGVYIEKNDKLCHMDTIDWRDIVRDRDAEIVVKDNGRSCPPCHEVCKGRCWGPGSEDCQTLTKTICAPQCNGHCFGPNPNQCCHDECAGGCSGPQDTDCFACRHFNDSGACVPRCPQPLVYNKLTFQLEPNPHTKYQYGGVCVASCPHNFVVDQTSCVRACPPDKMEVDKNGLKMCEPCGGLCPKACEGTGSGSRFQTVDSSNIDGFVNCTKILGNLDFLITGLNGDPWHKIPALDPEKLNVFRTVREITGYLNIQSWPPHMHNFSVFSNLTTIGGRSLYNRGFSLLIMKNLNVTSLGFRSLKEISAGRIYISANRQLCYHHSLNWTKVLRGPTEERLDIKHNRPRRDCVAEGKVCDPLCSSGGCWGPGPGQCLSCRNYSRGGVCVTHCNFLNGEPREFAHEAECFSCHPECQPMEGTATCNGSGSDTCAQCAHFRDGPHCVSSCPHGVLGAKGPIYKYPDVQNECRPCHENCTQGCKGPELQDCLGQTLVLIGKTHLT
Experiment: ELISA; plate coated with human recombinant HER3; serial dilutions 0-100 μg/ml; goat anti-human IgG F(ab')2-HRP; absorbance at 450 nm

| Binder | EC50 [ng/mL] |
| --- | --- |
| B1 | 1.7 |
| B2 | 2.2 |
